{"source": "patent US20160053277A1", "about": "“Compositions Having Dicamba Decarboxylase Activity and Methods of Use” (PIONEER HI-BRED INTERNATIONAL, INC., priority 2013, published 2016)", "molecules": {"B1": {"name": "69 (protein, listed as Microbacterium testaceum)", "chain": "MATSTEGQDVTDVHAHLLMPGLHAEVERRVPDEVQAAADLELRRNGLASLQASGRMIGERFPRLTDVRARLAAMDEQGVDRQWVSPSPNHFYPWANEGLATWASGEANRLIAEHVALAPDRLVGLGVVPLQHPHLVVDALDDAVLGRGLAGVEISSFAGDVELSDERLESFWARAAELRAVVFLHPFGCSLDERLDRFYLSNTVGQPTENAVALSHLIFSGVLDRHPGLRLIAAHGGGYLPTAIGRSDRAWRVRPEARGCAHAPSTYLSKLWFDTVVHDERALRWLVEAAGADRVLLGSDFPFDMGLDDPVAFVRGAGLQDAEVSGILGGNAAELLRTRVHA"}, "B2": {"name": "76 (protein, listed as Polymorphum gilvum)", "chain": "MAKKIDIFNHIWPEPFFKALIAHIGEMTDITMRSGAVPMMTNLDRRFEVMDMFGPDYMQVLSLASPPLEKLADPAKALELSRIGSDSLAELCQRYPERFPAFIGTAPLSNPAAVVGECRRAIEDLGAAGMQIFTNVAGKPLDLAEFEPFFEYMASAGKPVWLHPARGEAFADYQTEKRSEYEIWWTFGWPYETSAAMARLVFSRMFDKYPGLKVITHHAGGMVPFFEGRVGPGWDQMGARTTDRDLAAVRKALKRPHLDYFKEFYADTASFGSRKAIEHAIEFFGEDRVLFASDAPFDPEGGPMYIRETMRCIDSLDLTDAQRRKIYHGNATALLGLSL"}, "B3": {"name": "78 (protein, listed as Marinobacter adhaerens)", "chain": "MALIDLHAHAPHPDYYDQHPHWGPAFELQSDGDIKLRVGHWVLSLGAPERKQALREAHARGETLDVQEYMAKWRDPEHRLASMDAAGQNAQVLSVPSHCYMYWAEPEFGVPFAKKVNDSLAEYCSAAPDRLMFWAHAPLNVPKEAAKEIRRACTELGAKGLVAGGSNFGGLEFDSPEMDPVWEALCDLDLPMFVHGYNQSVTWGEEANTDRYETTAIVGMNYDESKCFWYMINGGVFDRFPNLKVYITHGGGFVPYQLGRMAQTNPNLDTYHNKKPFLEYLKNFYFDVELHEVPMRQAMVEVIGADRVLYGSNFGGSDAVRHDLTDDLKLSQEDLDKIRWKNACDLLHLDPNKLGKVRG"}, "B4": {"name": "72 (protein)", "chain": "MADCPCCVSPKRRRLLGSVSAIAAGMMAGLPALAAQPSTAAAGTGKPLSIDIHAHYYSESFLGLLGGEGKQFGGHFFRNDDSFTFQTPAGGLGPLPMKFIDVEQRVRDMDNSGVDVQAISLSVPMVYWADRTLNAKLARAWNTAASDVHRKHPTRFVVLATLPMLNANDAIDELEFAAGLPGVRGIYMGTNINNRDLDDPLFSPIFKRIEQLNLPIFLHPQQTVGGARLADFYLSNLLGNPFDTAIAASHLILGGVLDKYPALHFSLPHAGGALPILVGRIDAGWSMRSETKRVAQKPSSYLRRFSYDTISHSGPTLDFLIRNIGADRLVLGSDYCFDMGYEQPVRFLDRLALPDDQKRMVVGGNAARLLNL", "modifications": "Cupriavidus necator"}, "B5": {"name": "70 (protein, listed as Alicyclobacillus acidocaldarius)", "chain": "MAIEPNRAADVHTHFLPTEVLEFLKREPRIQVDLERRAPDKEPFLTVEGRWSFELKRMFVDFEAFASAYRQAGIGLALVSPLPQLFVYHLPAEMGAQVAEVYNDALRDVLAPHRERFRPLATLPLADPTAAARELERRMDEGFVGAIVGPGVGEALIGDEAFWPLWEVADARRAVLFLHPLLHADPRAARLMLPNLVGVPWETTLAAAHLVLSGLLDRYPGARVLLAHGGGFLPYQIGRIEQGYDVWPQVRGRLQDRPTAYLRRMFYDNVLWSDAALRCLIDVVGADRVLAGSDFPFDLSAWPPRPGADVSVLAGGSGREGRLS"}, "B6": {"name": "71 (protein, listed as Burkholderia dolosa)", "chain": "MARAGHRAARTRQSRPGDRTMTCSCCMSAGRRRVLGAFAALAGAPKGPRAASAAQPAAASKPTRGDATARNRHSRALLPGKASASWSATKASGSGGAFAWDDTTFTFRTPAGGLGPLPMKFIDVDARLRDMDASGVDVQALSLSVPMAYWGDRPFNAKLARAWNTAASRVHVRAPDRFVVLATLPMLDATDAIDELERASELPGVRGVYMGTNIDNRDLDDPRFAPVFARIEQLGLPVFLHPQQTVGGARLGDFYLSNLLGNPFDTAIAASHLILGGVLDRHPALHFTLPHAGGALPILVGRLDAGWTVRAETRRLAHQPSGYLRRFSYDTVSHSGPVLNFLIENVGIDRLVLGSDYCFDMGYEQPVRFLDRLDLTPDERAMVIGGNAGRLLRI"}, "B7": {"name": "73 (protein, listed as Sphaerobacter thermophilus)", "chain": "MARIDAHAHAQPPEYLDALLASGRYESVRDAEGRIVVRERGSRFLTITPQMHHPEQRVAEMDEAGIDMQILSVTTPQVYFLQGQAAVDLARRCNDYLADIVRSYPTRFRALASVPLTADPDAAVREFVRCLDDLGMVGAIIGSNIDGRPIDDPAFDAFYAEADRRATTLFIHPMVPAGIEVMNPYALAPLVGFMFDTTLAVSRLIFSGFFERYPRVKVLVGHLGAAVPYLAGRLDIGWRSYSDCQGIPHPPTEYIRRLYLDTVSFHAPALRCALETVGPDRIVFGSDYPHVIGDVGGAIASIQQALPATTHDGVLGHTAAELFGVSA"}, "B8": {"name": "74 (protein, listed as Ramlibacter tataouinensis)", "chain": "MATVIDVHTHMFTTKWLELLKKEGGQYNIQTRPDGQQEIFRGNTPVVIPQKGHFDWKLRIQHMDQAGIDVSVVSLTCPNVYWGGEDVSVRAAREANDNVAQAQTAYPDRIRWFASLPWEYMATVIDVHTHMFTTKWLELLKKEGGQYNIQTRPDGQQEIFRGNTPVVIPQKGHFDWKLRIQHMDQAGIDVSVVSLTCPNVYWGGEDVSVRAAREANDNVAQAQTAYPDRIRWFASLPWEYPQRAVEELERSCAQGAAGVMVLANVAGRSLTDPLFAPVWAEIDRRALPVLVHPTDPPGVDLMDMTKFDLSWSVGFMFDTTLAITRMIFEGFFDRYPNLRIIASHGGGTLPYLVGRFEKGDEVELASRRQMKRKPTDYLRHIHYDCITYNLGALQYLISVVGAGQVMFGTDWPHWVHDTRGAFANTAQLPQEQTRAVRGANAQRLFKL"}, "B9": {"name": "75 (protein, listed as Ectocarpus siliculosus)", "chain": "MAKIDSYTHFACPAFMDHLEAESGHPMVFRGLFSSIPELSDIDLRIRYMDEHGIDVHCLVPLPWLECEPGLHADEGKALEACRIANDEMARVVARFPDRLIGVALIPTTTEQAMIQETTRAVKELGMAGVALFVGPTAKPPDMACFEGLYRTCEELGAVVWMHPCRPQSYADYDSYKGEGSKHQIWNTFGWIYDTSVAMVHIALAGVFRRYPGLKVVTHHHGAMVPFFTARFDTQRRNFQEVEGDDLLEDLRLFYCDTATFGESAANIQQAIDFFGKSQVLFGTDTPMDMGTRGMFTRTTIASVEALGAAPEDKESFYAGNVLDMLGERFAGISGARGAVAARPKGDSTRIAASL"}, "B10": {"name": "77 (protein)", "chain": "MALIDLHAHAPHPGYYNQHPHWGPFFERHEDGDVKLRVGDWILTLGSPERKALVRAGKGPTVEEYQARWADPKVRLAGMDAAGQNAQVVSVPSHCYMYWAEKEFSVPFATKVNDTFAEYCSAAPDRLMFWAHAALNAPEQAALELRRACTELGAKGLVAGGANFGGLEFDSPELDPVWKVLCDLDLPMFIHGYNQSVTWGKKANDDRYETTAIVGMQYDETRCFWNLVCGGVLDRFPGLKVYITHGGGYVPYQLGRLAQCNGNLDVAHNKKPVLEYLKNNFYFDVELHEVPMRQALIDIIGADRVLYGSNFGGSDAVRHDLTEGLRLSDDDLQKIRWKNACKLLHLDPAKIGEPAKKQAVSA", "modifications": "Burkholderia xenovorans"}, "B11": {"name": "80 (protein, listed as Cordyceps militaris)", "chain": "MAAASTPVVVDIHTHMYPPSYIAMLEKRQTIPLVRTFPQADEPRLILLSSELAALDAALADPAAKLPGRPLSTHFASLAQKMHFMDTNGIRVSVISLANPWFDFLAPDEAPGIADAVNAEFSDMCAQHVGRLFFFAALPLSAPVDAVKASIERVKNLKYCRGIILGTSGLGKGLDDPHLLPVFEAVADAKLLVFLHPHYGLPNEVYGPRSEEYGHVLPLALGFPMETTIAVARMYMAGVFDHVRNLQMLLAHSGGTLPFLAGRIESCIVHDGHLVKTGKVPKDRRTIWTVLKEQIYLDAVIYSEVGLQAAIASSGADRLMFGTDHPFFPPIEEDVQGPWDSSRLNAQAVIKAVGEGSSDAAAVMGLNAVRVLSLKAE"}, "B12": {"name": "68 (protein, listed as Hoeflea phototrophica)", "chain": "MAIIDAHTHTLCPAVNEKVAGTIKPDSVPYQRDMSPESKEQDHTQFPELKIMFNQVERRLADMARMGIDRQVIAPAPGQQHYWAEPKLLAEISALQNDHVAELVARAPDRFAGIGTLPMTDPDAAVAEITRATRELGLRVFQIDSRVMERELSDASLDPIYAALEAAGAGLMIHPLGFSNGERLTPFFMVNSVAQPLEELLAFNHLVFGGVLDRFPKLKVYIAHGGGFAPFYIGRFDHAWKVRPEVNRLTPSAPSTYLRRIYFDTCVYRTDHIETLVRTVGADRVMLGSDYPFDMGDTDPLGLLNACQGLSDDEKATISSKVAIDFFGLET"}}}
{"test": "14C assay with IPTG-induced recombinant E. coli cells: 14CO2 captured from [14C]-carboxyl-labeled dicamba", "conditions": "dicamba decarboxylation activity of the protein of the given SEQ ID NO; High / Low / No"}
{"molecule": "B1", "Enzymatic Detection level": "No"}
{"molecule": "B2", "Enzymatic Detection level": "No"}
{"molecule": "B3", "Enzymatic Detection level": "Low"}
{"molecule": "B4", "Enzymatic Detection level": "Low"}
{"molecule": "B5", "Enzymatic Detection level": "Low"}
{"molecule": "B6", "Enzymatic Detection level": "Low"}
{"molecule": "B7", "Enzymatic Detection level": "Low"}
{"molecule": "B8", "Enzymatic Detection level": "Low"}
{"molecule": "B9", "Enzymatic Detection level": "Low"}
{"molecule": "B10", "Enzymatic Detection level": "No"}
{"molecule": "B11", "Enzymatic Detection level": "Low"}
{"molecule": "B12", "Enzymatic Detection level": "No"}
{"test": "14C assay with IPTG-induced recombinant E. coli cells: 14CO2 captured from [14C]-carboxyl-labeled dicamba", "conditions": "induced recombinant E. coli cells, [14C]-carboxyl-labeled dicamba, 14CO2 capture"}
{"molecule": "B1", "Dicamba Decarboxylase Activity": "No"}
{"molecule": "B2", "Dicamba Decarboxylase Activity": "No"}
{"molecule": "B3", "Dicamba Decarboxylase Activity": "Low"}
{"molecule": "B4", "Dicamba Decarboxylase Activity": "Low"}
{"molecule": "B5", "Dicamba Decarboxylase Activity": "Low"}
{"molecule": "B6", "Dicamba Decarboxylase Activity": "Low"}
{"molecule": "B7", "Dicamba Decarboxylase Activity": "Low"}
{"molecule": "B8", "Dicamba Decarboxylase Activity": "Low"}
{"molecule": "B9", "Dicamba Decarboxylase Activity": "Low"}
{"molecule": "B10", "Dicamba Decarboxylase Activity": "No"}
{"molecule": "B11", "Dicamba Decarboxylase Activity": "Low"}
{"molecule": "B12", "Dicamba Decarboxylase Activity": "No"}
{"test": "Saturation mutagenesis of SEQ ID NO:109: dicamba decarboxylation activity of point mutants (carbon dioxide released)", "conditions": "decarboxylation activity (carbon dioxide released) of point mutant compared with unmutated backbone protein; backbone SEQ ID NO: 109"}
{"molecule": "B1", "Fold Activity": 1.3}
{"molecule": "B2", "Fold Activity": 1.1}
{"molecule": "B3", "Fold Activity": 1.1}
{"molecule": "B4", "Fold Activity": 1.2}
{"molecule": "B5", "Fold Activity": 1.7}
{"molecule": "B6", "Fold Activity": 1.5}
{"molecule": "B7", "Fold Activity": 1.2}
{"molecule": "B8", "Fold Activity": 1.4}
{"molecule": "B9", "Fold Activity": 1.7}
{"molecule": "B10", "Fold Activity": 1.3}
{"molecule": "B11", "Fold Activity": 0.8}
{"molecule": "B12", "Fold Activity": 1.3}
